Laboratory results from article PMC9418313, “Multivalent interactions between molecular components involved in fast endophilin mediated endocytosis drive protein phase separation” (Nature Communications, 2022).

B1: endophilin ΔH0 mutant (domain or fragment)
chain: GGAEGTKLDDDFKEMERKVDVTSRAVMEIMTKTIEYLQPNPASRAKLSMINTMSKIRGQEKGPGYPQAEALLAEAMLKFGRELGDDCNFGPALGEVGEAMRELSEVKDSLDMEVKQNFIDPLQNLHDKDLREIQHHLKKLEGRRLDFDYKKKRQGKIPDEELRQALEKFDESKEIAESSMFNLLEMDIEQVSQLSALVQAQLEYHKQAVQILQQVTVRLEERIRQASSQPRREYQPKPRMSLEFATGDGTQPNGGLSHTGTPKPAGVQMDQPCCRALYDFEPENEGELGFKEGDIITLTNQIDENWYEGMLHGQSGFFPINYVEILVALPH
modifications: Alexa 594 C5-maleimide on the labelled fraction
B2: FBP17 (natural protein, UniProt Q96RU3 1-617, looked up)
chain: MSWGTELWDQFDNLEKHTQWGIDILEKYIKFVKERTEIELSYAKQLRNLSKKYQPKKNSKEEEEYKYTSCKAFISNLNEMNDYAGQHEVISENMASQIIVDLARYVQELKQERKSNFHDGRKAQQHIETCWKQLESSKRRFERDCKEADRAQQYFEKMDADINVTKADVEKARQQAQIRHQMAEDSKADYSSILQKFNHEQHEYYHTHIPNIFQKIQEMEERRIVRMGESMKTYAEVDRQVIPIIGKCLDGIVKAAESIDQKNDSQLVIEAYKSGFEPPGDIEFEDYTQPMKRTVSDNSLSNSRGEGKPDLKFGGKSKGKLWPFIKKNKLMSLLTSPHQPPPPPPASASPSAVPNGPQSPKQQKEPLSHRFNEFMTSKPKIHCFRSLKRGLSLKLGATPEDFSNLPPEQRRKKLQQKVDELNKEIQKEMDQRDAITKMKDVYLKNPQMGDPASLDHKLAEVSQNIEKLRVETQKFEAWLAEVEGRLPARSEQARRQSGLYDSQNPPTVNNCAQDRESPDGSYTEEQSQESEMKVLATDFDDEFDDEEPLPAIGTCKALYTFEGQNEGTISVVEGETLYVIEEDKGDGWTRIRRNEDEEGYVPTSYVEVCLDKNAKDS
modifications: Alexa 488 C5-maleimide
notes: Obtained from Harvey McMahon's lab; also called F-BAR family protein FBP17; FBP17 (Alexa 488); source: E. coli BL21-CodonPlus(DE3)-RIL, purified (GSTrap, size exclusion)
B3: full-length human amphiphysin 1 (natural protein, UniProt P49418 1-695, looked up)
chain: MADIKTGIFAKNVQKRLNRAQEKVLQKLGKADETKDEQFEEYVQNFKRQEAEGTRLQRELRGYLAAIKGMQEASMKLTESLHEVYEPDWYGREDVKMVGEKCDVLWEDFHQKLVDGSLLTLDTYLGQFPDIKNRIAKRSRKLVDYDSARHHLEALQSSKRKDESRISKAEEEFQKAQKVFEEFNVDLQEELPSLWSRRVGFYVNTFKNVSSLEAKFHKEIAVLCHKLYEVMTKLGDQHADKAFTIQGAPSDSGPLRIAKTPSPPEEPSPLPSPTASPNHTLAPASPAPARPRSPSQTRKGPPVPPLPKVTPTKELQQENIISFFEDNFVPEISVTTPSQNEVPEVKKEETLLDLDFDPFKPEVTPAGSAGVTHSPMSQTLPWDLWTTSTDLVQPASGGSFNGFTQPQDTSLFTMQTDQSMICNLAESEQAPPTEPKAEEPLAAVTPAVGLDLGMDTRAEEPVEEAVIIPGADADAAVGTLVSAAEGAPGEEAEAEKATVPAGEGVSLEEAKIGTETTEGAESAQPEAEELEATVPQEKVIPSVVIEPASNHEEEGENEITIGAEPKETTEDAAPPGPTSETPELATEQKPIQDPQPTPSAPAMGAADQLASAREASQELPPGFLYKVETLHDFEAANSDELTLQRGDVVLVVPSDSEADQDAGWLVGVKESDWLQYRDLATYKGLFPENFTRRLD
modifications: Alexa 488 C5-maleimide
notes: amphiphysin 1, human, full length; Plasmid from Pietro De Camilli's lab; also called Amph1; Amph1-Alexa 488
B4: third intracellular loop (TIL) of the human β1-adrenergic receptor (aa 246–325) (domain or fragment, UniProt P08588 246-325, looked up)
chain: RVFREAQKQVKKIDSCERRFLGGPARPPSPSPSPVPAPAPPPGPPRPAAAAATAPLANGRAGKRRPSRLVALREQKALKT
modifications: Alexa 488 (5-SDP ester) at the N-terminal on the labelled fraction
notes: β1-adrenergic receptor, human, third intracellular loop, 80 amino acids, aa 246–325; Cloned in pGEX6p1; GST cleaved by PreScission protease; also called TIL-Alexa 488; source: E. coli BL21-CodonPlus(DE3)-RIL, purified (GST Trap, cation exchange)
B5: lamellipodin C-terminal domain fragment LPD^850–1250 with C-terminal His6 tag (domain or fragment, UniProt Q70E73 850-1250, looked up)
chain: PPPSPLSPVPSVVKQIASQFPPPPTPPAMESQPLKPVPANVAPQSPPAVKAKPKWQPSSIPVPSPDFPPPPPESSLVFPPPPPSPVPAPPPPPPPTASPTPDKSGSPGKKTSKTSSPGGKKPPPTPQRNSSIKSSSGAEHPEPKRPSVDSLVSKFTPPAESGSPSKETLPPPAAPPKPGKLNLSGVNLPGVLQQGCVSAKAPVLSGRGKDSVVEFPSPPSDSDFPPPPPETELPLPPIEIPAVFSGNTSPKVAVVNPQPQQWSKMSVKKAPPPTRPKRNDSTRLTQAEISEQPTMATVVPQVPTSPKSSLSVQPGFLADLNRTLQRKSITRHGSLSSRMSRAEPTATMDDMALPPPPPELLSDQQKAGYGGSHISGYATLRRGPPPAPPKRDQNTKLSRDW
modifications: Alexa 647 succinimidyl ester on the labelled fraction
notes: Synthesized and cloned into pGEX6p1 by Biomatik; also called LPD C-terminal domain; source: E. coli BL21-CodonPlus(DE3)-RIL, purified (Ni-NTA agarose, cation exchange); not shown: His6, C-terminal, kept
B6: full-length rat endophilin A1 (single-cysteine form) (natural protein, UniProt O35179 1-352, looked up)
chain: MSVAGLKKQFHKATQKVSEKVGGAEGTKLDDDFKEMERKVDVTSRAVMEIMTKTIEYLQPNPASRAKLSMINTMSKIRGQEKGPGYPQAEALLAEAMLKFGRELGDDSNFGPALGEVGEAMRELSEVKDSLDMEVKQNFIDPLQNLHDKDLREIQHHLKKLEGRRLDFDYKKKRQGKIPDEELRQALEKFDESKEIAESSMFNLLEMDIEQVSQLSALVQAQLEYHKQAVQILQQVTVRLCERIRQASSQPRREYQPKPRMSLEFATGDGTQPNGGLSHTGTPKPAGVQMDQPSSRALYDFEPENEGELGFKEGDIITLTNQIDENWYEGMLHGQSGFFPINYVEILVALPH
modifications: Alexa 594 or Alexa 488 C5-maleimide on the small labelled fraction (about 4-10 mol%) mixed with unlabelled protein
notes: endophilin A1, rat, full length, mutated to a single-cysteine form for labeling; also called A1 isoform of endophilin, from rat; full-length endophilin

Legend:
[1] = target: full-length rat endophilin A1 (single-cysteine form) (rat) (UniProt O35179); test: client partitioning into condensate droplets (confocal microscopy, apparent partition coefficient); endophilin (25 µM) droplets with 10% PEG; Alexa-labeled client at 250 nM to 1 µM mixed in before PEG; 20 mM HEPES, 150 mM NaCl, 1 mM TCEP, pH 7.4, room temperature; apparent
[2] = target: endophilin N-BAR-only mutant (rat); test: fluorescence intensity ratio of droplets vs. bulk solution (confocal microscopy); 1 µM Alexa 594-labeled variant with 25 µM of the same unlabeled variant, 10% PEG
[3] = target: full-length rat endophilin A1 (single-cysteine form) (rat) (UniProt O35179)
[4] = target: the molecule itself; test: fluorescence intensity ratio of droplets vs. bulk solution (confocal microscopy); 1 µM Alexa 594-labeled variant with 25 µM of the same unlabeled variant, 10% PEG
[5] = target: B6; test: cell-based or functional assay
[6] = target: B6; test: client partitioning into condensate droplets (confocal microscopy, apparent partition coefficient); endophilin (25 µM) droplets with 10% PEG; Alexa-labeled client at 250 nM to 1 µM mixed in before PEG; 20 mM HEPES, 150 mM NaCl, 1 mM TCEP, pH 7.4, room temperature; apparent; details: both partners purified

| Molecule | threshold endophilin concentration for LLPS (10% PEG) in the presence of 10 µM client (10 µM without client) [5] | apparent partition coefficient (Kapp) [6] | other results |
| --- | --- | --- | --- |
| BIN1 isoform 9 (natural protein) |  |  | apparent partition coefficient (Kapp) [1]: 267 |
| endophilin N-BAR-only mutant (domain or fragment) |  |  | fluorescence intensity ratio inside vs. outside droplets [2]: 1800 |
| PRM7-His: heptameric repeat of a lamellipodin proline-rich motif (aa 970–981) joined by (Gly-Gly-Ser)4 linkers (from UniProt Q70E73 970-981; Q70E73 970-981; Q70E73 970-981; Q70E73 970-981; Q70E73 970-981; Q70E73 970-981; Q70E73 970-981) (designed binder) |  |  | threshold endophilin concentration for LLPS (10% PEG) in the presence of 10 µM client (10 µM without client) [3]: < 5 µM; apparent partition coefficient (Kapp) [1]: 26 |
| B1 |  |  | fluorescence intensity ratio inside vs. outside droplets [4]: 380 |
| B2 | 15 µM | 1130 |  |
| B3 | 30 µM | 352 |  |
| B4 | ≤ 5 µM | 138 |  |
| B5 | ≤ 5 µM | 515 |  |
| B6 |  |  | fluorescence intensity ratio inside vs. outside droplets [4]: 480 |
